# Experimental data as given in patent US20240321457A1 (University of California, published 2024).
# T1: UBE2N (human, UniProt P61088 1-152)
# T1 construct: endogenous prey from cell lysate; also called UBC13
# T1 sequence (looked up): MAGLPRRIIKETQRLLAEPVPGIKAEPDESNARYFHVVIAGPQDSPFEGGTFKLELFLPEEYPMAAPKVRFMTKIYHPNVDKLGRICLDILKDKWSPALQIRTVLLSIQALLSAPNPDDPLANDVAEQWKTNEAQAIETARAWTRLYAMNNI
# B1: BRCA1 I26A (enzyme, human, UniProt P38398 1-1863, looked up)
# chain: MDLSALRVEEVQNVINAMQKILECPACLELIKEPVSTKCDHIFCKFCMLKLLNQKKGPSQCPLCKNDITKRSLQESTRFSQLVEELLKIICAFQLDTGLEYANSYNFAKKENNSPEHLKDEVSIIQSMGYRNRAKRLLQSEPENPSLQETSLSVQLSNLGTVRTLRTKQRIQPQKTSVYIELGSDSSEDTVNKATYCSVGDQELLQITPQGTRDEISLDSAKKAACEFSETDVTNTEHHQPSNNDLNTTEKRAAERHPEKYQGSSVSNLHVEPCGTNTHASSLQHENSSLLLTKDRMNVEKAEFCNKSKQPGLARSQHNRWAGSKETCNDRRTPSTEKKVDLNADPLCERKEWNKQKLPCSENPRDTEDVPWITLNSSIQKVNEWFSRSDELLGSDDSHDGESESNAKVADVLDVLNEVDEYSGSSEKIDLLASDPHEALICKSERVHSKSVESNIEDKIFGKTYRKKASLPNLSHVTENLIIGAFVTEPQIIQERPLTNKLKRKRRPTSGLHPEDFIKKADLAVQKTPEMINQGTNQTEQNGQVMNITNSGHENKTKGDSIQNEKNPNPIESLEKESAFKTKAEPISSSISNMELELNIHNSKAPKKNRLRRKSSTRHIHALELVVSRNLSPPNCTELQIDSCSSSEEIKKKKYNQMPVRHSRNLQLMEGKEPATGAKKSNKPNEQTSKRHDSDTFPELKLTNAPGSFTKCSNTSELKEFVNPSLPREEKEEKLETVKVSNNAEDPKDLMLSGERVLQTERSVESSSISLVPGTDYGTQESISLLEVSTLGKAKTEPNKCVSQCAAFENPKGLIHGCSKDNRNDTEGFKYPLGHEVNHSRETSIEMEESELDAQYLQNTFKVSKRQSFAPFSNPGNAEEECATFSAHSGSLKKQSPKVTFECEQKEENQGKNESNIKPVQTVNITAGFPVVGQKDKPVDNAKCSIKGGSRFCLSSQFRGNETGLITPNKHGLLQNPYRIPPLFPIKSFVKTKCKKNLLEENFEEHSMSPEREMGNENIPSTVSTISRNNIRENVFKEASSSNINEVGSSTNEVGSSINEIGSSDENIQAELGRNRGPKLNAMLRLGVLQPEVYKQSLPGSNCKHPEIKKQEYEEVVQTVNTDFSPYLISDNLEQPMGSSHASQVCSETPDDLLDDGEIKEDTSFAENDIKESSAVFSKSVQKGELSRSPSPFTHTHLAQGYRRGAKKLESSEENLSSEDEELPCFQHLLFGKVNNIPSQSTRHSTVATECLSKNTEENLLSLKNSLNDCSNQVILAKASQEHHLSEETKCSASLFSSQCSELEDLTANTNTQDPFLIGSSKQMRHQSESQGVGLSDKELVSDDEERGTGLEENNQEEQSMDSNLGEAASGCESETSVSEDCSGLSSQSDILTTQQRDTMQHNLIKLQQEMAELEAVLEQHGSQPSNSYPSIISDSSALEDLRNPEQSTSEKAVLTSQKSSEYPISQNPEGLSADKFEVSADSSTSKNKEPGVERSSPSKCPSLDDRWYMHSCSGSLQNRNYPSQEELIKVVDVEEQQLEESGPHDLTETSYLPRQDLEGTPYLESGISLFSDDPESDPSEDRAPESARVGNIPSSTSALKVPQLKVAESAQSPAAAHTTDTAGYNAMEESVSREKPELTASTERVNKRMSMVVSGLTPEEFMLVYKFARKHHITLTNLITEETTHVVMKTDAEFVCERTLKYFLGIAGGKWVVSYFWVTQSIKERKMLNEHDFEVRGDVVNGRNHQGPKRARESQDRKIFRGLEICCYGPFTNMPTDQLEWMVQLCGASVVKELSSFTLGTGVHPIVVVQPDAWTEDNGFHAIGQMCEAPVVTREWVLDSVALYQCQELDTYLIPQIPHSHY
# notes: 3xFLAG-tagged bait; printed I16A in the embodiments; also called RING domain mutant I26A
# B2: UIMC1 (other, human, UniProt Q96RL1 1-719, looked up)
# chain: MPRRKKKVKEVSESRNLEKKDVETTSSVSVKRKRRLEDAFIVISDSDGEEPKEENGLQKTKTKQSNRAKCLAKRKIAQMTEEEQFALALKMSEQEAREVNSQEEEEEELLRKAIAESLNSCRPSDASATRSRPLATGPSSQSHQEKTTDSGLTEGIWQLVPPSLFKGSHISQGNEAEEREEPWDHTEKTEEEPVSGSSGSWDQSSQPVFENVNVKSFDRCTGHSAEHTQCGKPQESTGRGSAFLKAVQGSGDTSRHCLPTLADAKGLQDTGGTVNYFWGIPFCPDGVDPNQYTKVILCQLEVYQKSLKMAQRQLLNKKGFGEPVLPRPPSLIQNECGQGEQASEKNECISEDMGDEDKEERQESRASDWHSKTKDFQESSIKSLKEKLLLEEEPTTSHGQSSQGIVEETSEEGNSVPASQSVAALTSKRSLVLMPESSAEEITVCPETQLSSSETFDLEREVSPGSRDILDGVRIIMADKEVGNKEDAEKEVAISTFSSSNQVSCPLCDQCFPPTKIERHAMYCNGLMEEDTVLTRRQKEAKTKSDSGTAAQTSLDIDKNEKCYLCKSLVPFREYQCHVDSCLQLAKADQGDGPEGSGRACSTVEGKWQQRLKNPKEKGHSEGRLLSFLEQSEHKTSDADIKSSETGAFRVPSPGMEEAGCSREMQSSFTRRDLNESPVKSFVSISEATDCLVDFKKQVTVQPGSRTRTKAGRGRRRKF
# notes: endogenous prey from cell lysate
# B3: CSTB (other, human, UniProt P04080 1-98, looked up)
# chain: MMCGAPSATQPATAETQHIADQVRSQLEEKENKKFPVFKAVSFKSQVVAGTNYFIKVHVGDEDFVHLRVFQSLPHENKPLTLSNYQTNKAKHDELTYF
# notes: as for B2
# B4: SPRR3 (other, human, UniProt Q9UBC9 2-169, looked up)
# chain: SSYQQKQTFTPPPQLQQQQVKQPSQPPPQEIFVPTTKEPCHSKVPQPGNTKIPEPGCTKVPEPGCTKVPEPGCTKVPEPGCTKVPEPGCTKVPEPGCTKVPEPGYTKVPEPGSIKVPDQGFIKFPEPGAIKVPEQGYTKVPVPGYTKLPEPCPSTVTPGPAQQKTKQK
# notes: as for B2
# B5: S100 Calcium Binding Protein A3 (other, human, UniProt P33764 2-101, looked up)
# chain: ARPLEQAVAAIVCTFQEYAGRCGDKYKLCQAELKELLQKELATWTPTEFRECDYNKFMSVLDTNKDCEVDFVEYVRSLACLCLYCHEYFKDCPSEPPCSQ
# notes: endogenous prey from cell lysate; also called S100A3
# B6: keratin KRT32 (other, human, UniProt Q14532 1-448, looked up)
# chain: MTSSCCVTNNLQASLKSCPRPASVCSSGVNCRPELCLGYVCQPMACLPSVCLPTTFRPASCLSKTYLSSSCQAASGISGSMGPGSWYSEGAFNGNEKETMQFLNDRLASYLTRVRQLEQENAELESRIQEASHSQVLTMTPDYQSHFRTIEELQQKILCTKAENARMVVNIDNAKLAADDFRAKYEAELAMRQLVEADINGLRRILDDLTLCKADLEAQVESLKEELMCLKKNHEEEVGSLRCQLGDRLNIEVDAAPPVDLTRVLEEMRCQYEAMVEANRRDVEEWFNMQMEELNQQVATSSEQLQNYQSDIIDLRRTVNTLEIELQAQHSLRDSLENTLTESEARYSSQLAQMQCMITNVEAQLAEIRADLERQNQEYQVLLDVRARLEGEINTYRSLLENEDCKLPCNPCSTPSCTTCVPSPCVPRTVCVPRTVGMPCSPCPQGRY
# notes: as for B2
# How the values were obtained:
# UBE2N [1] = target: T1, UBE2N; test: AP-MS, PPI score from compPASS and SAINTexpress, MDA-MB-231 cells
# Protocol: For AP-MS experiments, samples were resuspended in 15 μL of MS loading buffer (4% formic acid, 2% acetonitrile) and 2 μL were separated by a reversed-phase gradient over a nanoflow 75 μm ID×25 cm long picotip column packed with 1.9 μM C18 particles (Dr. Maisch). Peptides were directly injected over the course of a 75 min acquisition into a Q-Exactive Plus mass spectrometer (Thermo), or over the course of a 90 min acquisition into a Orbitrap Elite mass spectrometer. […] Peptides and proteins were filtered to 1% false discovery rate in MaxQuant, and identified proteins were then subjected to protein-protein interaction scoring.
# All PPI scoring was performed separately for each cell line. For SAINTexpress, control samples in which bait protein was not induced by addition of doxycycline were used. For CompPASS, a stats table representing all WT baits was used. After scoring, the CompPASS WD and Z-score were normalized within a given bait for each cell line. The total list of candidate PPIs was filtered to those that met the following criteria: SAINTexpress BFDR=<0.05, WD percentile by bait>=0.95, and Z-score percentile by bait≤=0.95. PPIs passing all 3 of these criteria were considered to be high-confidence PPIs. To enable visualization and analysis of PPIs by confidence score among these 3 criteria, a PPI score was calculated: [(WD percentile by bait+Z-score percentile by bait)/2)+(1−BFDR)]/2.
# UBE2N [2] = target: T1, UBE2N; test: quantitative AP-MS, prey abundance normalised to bait, MDA-MB-231 cells
# BRCA1 M1775R = target: T2, BRCA1 M1775R (human, UniProt P38398 1-1863); test: AP-MS, 3xFLAG bait, MDA-MB-231 cells
# T2 construct: 3xFLAG-tagged bait; also called BRCT domain mutant M1775R
# BRCA1 5382insC = target: T3, BRCA1 5382insC (human, UniProt P38398 1-1755, limits assumed); test: AP-MS, 3xFLAG bait, MDA-MB-231 cells
# T3 construct: 3xFLAG-tagged bait; also called 5832insC
# BRCA1 S1655F = target: T4, BRCA1 S1655F (human, UniProt P38398 1-1863); test: AP-MS, 3xFLAG bait, MDA-MB-231 cells
# T4 construct: 3xFLAG-tagged bait; also called BRCT domain mutant S1655F; 51655F
# AKT1 E17K mutant = AKT1 E17K mutant (human, UniProt P31749 1-480); test: AP-MS, 3xFLAG bait, breast cell lines
# AKT1 E17K mutant, sequence (P31749 whole entry E17K): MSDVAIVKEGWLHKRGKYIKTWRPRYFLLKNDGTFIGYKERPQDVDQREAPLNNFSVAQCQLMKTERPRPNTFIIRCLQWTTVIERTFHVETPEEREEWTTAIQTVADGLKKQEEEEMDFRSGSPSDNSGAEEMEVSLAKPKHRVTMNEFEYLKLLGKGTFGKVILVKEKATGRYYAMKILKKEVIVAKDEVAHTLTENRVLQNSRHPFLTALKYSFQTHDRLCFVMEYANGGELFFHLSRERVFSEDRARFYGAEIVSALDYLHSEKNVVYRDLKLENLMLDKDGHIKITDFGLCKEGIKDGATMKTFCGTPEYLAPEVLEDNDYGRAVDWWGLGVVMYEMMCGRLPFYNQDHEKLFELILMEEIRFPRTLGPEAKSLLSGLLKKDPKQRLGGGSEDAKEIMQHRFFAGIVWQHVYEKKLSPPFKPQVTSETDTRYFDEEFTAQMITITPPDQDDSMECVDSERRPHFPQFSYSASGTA
# AKT3 E17K mutant = AKT3 E17K mutant (human, UniProt Q9Y243 1-479); test: AP-MS, 3xFLAG bait, breast cell lines
# AKT3 E17K mutant, sequence (Q9Y243 whole entry E17K): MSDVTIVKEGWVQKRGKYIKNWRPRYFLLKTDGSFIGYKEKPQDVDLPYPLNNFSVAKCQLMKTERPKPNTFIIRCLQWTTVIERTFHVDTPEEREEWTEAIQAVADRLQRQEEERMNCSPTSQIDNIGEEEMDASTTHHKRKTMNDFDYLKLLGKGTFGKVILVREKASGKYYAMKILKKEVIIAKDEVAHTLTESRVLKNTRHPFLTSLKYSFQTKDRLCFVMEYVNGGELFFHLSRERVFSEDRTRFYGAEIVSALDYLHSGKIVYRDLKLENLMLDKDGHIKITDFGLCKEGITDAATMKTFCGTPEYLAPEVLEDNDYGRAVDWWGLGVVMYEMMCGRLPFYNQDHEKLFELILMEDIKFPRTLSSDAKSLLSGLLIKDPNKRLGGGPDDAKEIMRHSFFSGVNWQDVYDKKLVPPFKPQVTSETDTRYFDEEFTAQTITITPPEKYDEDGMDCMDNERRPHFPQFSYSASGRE
binder,measurement,setting,value
B1,PPI score,UBE2N [1],< 0.6
same,fold reduction of associated prey compared to WT,UBE2N [2],6 fold
B2,binding result,BRCA1 M1775R,no binding
same,binding result,BRCA1 5382insC,no binding
same,binding result,BRCA1 S1655F,no binding
B3,binding result,AKT1 E17K mutant,no binding
B4,binding result,AKT1 E17K mutant,no binding
B5,binding result,AKT3 E17K mutant,no binding
B6,binding result,AKT3 E17K mutant,no binding
